Data: patent publication US20240207216A1, “COMPOSITIONS AND METHOD FOR TREATING GUT PERMEABILITY CAUSED BY HYDROGEN SULFIDE PRODUCING BACTERIA” (UNM RAINFOREST INNOVATIONS, priority 2022, published 2024)

B1: intestinal alkaline phosphatase (protein, UniProt P09923 20-503, looked up)
Intestinal-type alkaline …: VIPAEEENPAFWNRQAAEALDAAKKLQPIQKVAKNLILFLGDGLGVPTVTATRILKGQKNGKLGPETPLAMDRFPYLALSKTYNVDRQVPDSAATATAYLCGVKANFQTIGLSAAARFNQCNTTRGNEVISVMNRAKQAGKSVGVVTTTRVQHASPAGTYAHTVNRNWYSDADMPASARQEGCQDIATQLISNMDIDVILGGGRKYMFPMGTPDPEYPADASQNGIRLDGKNLVQEWLAKHQGAWYVWNRTELMQASLDQSVTHLMGLFEPGDTKYEIHRDPTLDPSLMEMTEAALRLLSRNPRGFYLFVEGGRIDHGHHEGVAYQALTEAVMFDDAIERAGQLTSEEDTLTLVTADHSHVFSFGGYTLRGSSIFGLAPSKAQDSKAYTSILYGNGPGYVFNSGVRPDVNESESGSPDYQQQAAVPLSSETHGGEDVAVFARGPQAHLVHGVQEQSFVAHVMAFAACLEPYTACDLAPPACTTD
notes: host defense protein produced by enterocytes in the small intestine

Key:
[1] = system: Desulfovibrio desulfuricans; conditions: cited from earlier work
[2] = system: polarized Caco-2 cells; assay: DSV-induced paracellular permeability, 4 kDa FITC-dextran flux; format: cell-based, Human; conditions: IAP 500 U/ml apical and basolateral, 24 h before DSV MOI 20 for 24 h; vs DSV+Veh
Description: FIG. 7. Rapamycin reduces DSV-induced paracellular permeability. Human Caco-2 cells were grown in 0.4 μm trans-well inserts for three weeks to generate polarized intestinal epithelial monolayers. Cells were treated with 100 nM rapamycin, an inducer of autophagy, for two hours followed by DSV infection (MOI 20) for 24 hours. Barrier integrity was assessed by measuring paracellular flux of 4 kDa FITC-Dextran.
Human colonic epithelial cells Caco-2 were purchased from the American Type Culture Collection (ATCC, Manassas, VA). Cells were grown in DMEM+20% FBS+penicillin and streptomycin (Thermo Fisher Scientific, Inc., Waltham, MA). Cells were grown at 37° C. in a humidified incubator with 5% CO2. […]
Tight junction barrier integrity in 21-day old polarized Caco-2 cells grown in 12-well trans-well plates was assessed via transepithelial electric resistance (TEER) using EVOM meter (World Precision Instruments, LLC, Sarasota, FL). […] Paracellular permeability was quantified by measuring FITC-dextran flux (Fluorescein isothiocyanate-dextran 4000 (FD-4), Sigma-Aldrich, St. Louis, MO). […] After one hour of incubation, 100 μl of the basolateral medium was collected and analyzed for the presence of FITC fluorescence. Fluorescence was measured at the wavelengths of excitation at 485 nm and emission at 520 nm using a plate reader (Synergy HTX Multi-Mode Reader, BioTek, Winooski, VT). […]

[3] = system: Snail; assay: DSV-induced Snail protein expression by Western blot; format: cell-based, Human; conditions: IAP 500 U/ml pre-treatment 24 h, DSV 24 h; vs DSV+Veh
Description: FIG. 16. Rapamycin reduces DSV-induced Snail protein expression. Polarized Caco-2 cells were treated with 100 nM rapamycin for two hours, followed by DSV infection (MOI 20) for 24 hours. Cells were harvested and lysed. (A) Protein lysate was analyzed for Snail expression by Western blotting. (B) Quantitation of Snail expression from Western blot in (A). DSV: 7.14±0.73; DSV+Rapamycin: 3.10±0.74, **p<0.01.
Human colonic epithelial cells Caco-2 were purchased from the American Type Culture Collection (ATCC, Manassas, VA). Cells were grown in DMEM+20% FBS+penicillin and streptomycin (Thermo Fisher Scientific, Inc., Waltham, MA). Cells were grown at 37° C. in a humidified incubator with 5% CO2. To allow polarization and differentiation, cells were seeded at a density of 5×10^3 cells/well in 12-well 0.4 μm trans-well inserts for three weeks. Twenty-four hours before infection, growth medium was replaced with colorless medium (DMEM+20^0/o FBS) without antibiotics. […]
Cells were lysed in lysis buffer (Thermo Fisher Scientific, Inc., Waltham, MA; catalog #87787) containing protease and phosphatase inhibitors (Thermo Fisher Scientific, Inc., Waltham, MA; catalog #1861281) for 20 minutes at 4° C. with shaking. […] Protein concentration in the supernatants was determined with Bradford reagent (Bio-Rad Laboratories, Inc., Hercules, CA). […]

[4] = system: Snail; assay: DSV-induced Snail nuclear localization by immunofluorescence; format: cell-based, Human; conditions: IAP pre-treatment, DSV infection; vs DSV+Veh
Description: FIG. 5. Intestinal Alkaline Phosphatase inhibits DSV-induced permeability by inhibiting Snail. Polarized Caco-2 cells were pre-treated with IAP (500 U/ml) at the apical and the basolateral surface for 24 hours prior to challenge with D. vulgaris. (A) FITC-dextran was added to the cells apically after 24 hours infection with D. vulgaris. Fluorescence was measured by taking out 100 μl medium from the basolateral surface after one-hour incubation. Graph represents Mean±SEM of % FITC-flux compared to uninfected control cells from at least three independent experiments. **p<0.01. (B) Snail protein expression was analyzed by Western blotting in cells pre-treated with or without IAP followed by infection with D. vulgaris. The solution in which IAP was supplied was used as a Vehicle control. Actin was used as a loading control. (C) Quantification of Western blot for detection of Snail. Graph represents Mean±SEM of ratio of Snail/Actin and values were normalized to control from at least three independent experiments. *p<0.05. (D) Cells were pre-treated with or without IAP followed by infection with D. vulgaris. Cells were fixed with 4% paraformaldehyde and probed by immunofluorescence for Snail staining. Graph represents quantification of % cells showing nuclear staining of Snail in control, DSV+Vehicle (Veh), or DSV+IAP treated groups. […]

[5] = system: occludin; assay: Occludin localization by immunofluorescence in DSV-infected cells; format: cell-based, Human; conditions: IAP pre-treatment, DSV infection (DSV+IAP)

| Molecule | growth of Desulfovibrio desulfuricans [1] | D. vulgaris-induced FITC-dextran flux [2] | Snail protein expression [3] | percentage of cells with nuclear localization of Snail [4] | occludin staining [5] |
| --- | --- | --- | --- | --- | --- |
| [Bi] [bismuth] | inhibits the growth | – | – | – | – |
| B1 | – | inhibited | significantly reduced | significant reduction | comparable to control |
